Biological target: HLA-A*02:01
Assay: IEDB peptide-MHC binding, purified MHC/direct/fluorescence; filed as Kd, often an IC50 or EC50 that approximates it; ≥ and ≤ were set here for values at or beyond the usual limits of such assays
Details: source organism: Mycobacterium tuberculosis H37Rv

Sequence | Kd
AIYDTMQYV | ≤ 1 nM
ALDEGLLPV | ≤ 1 nM
ALLGGLRPV | ≤ 1 nM
AMAGSIDLL | 4 nM
GMFANRWII | 27 nM
HLDDVGFLV | ≤ 1 nM
KLQERLAKL | 18 nM
LLYDGSFAV | ≤ 1 nM
SLIDLLHKI | ≤ 1 nM
SLRNWIATL | 66 nM
SLWKDGAPL | 5 nM
WLYPGAQNL | ≤ 1 nM
YLLADTFTV | ≤ 1 nM
YLPDPTVGV | ≤ 1 nM
YVYPDNLPV | 2 nM
